Data set [1] has as its target T1, UP1+RGG (UniProt P09651-2 1-249). Description: ITC; 100 mM KCl; ITC/CD: 20 mM Tris-Cl pH 8, 100 mM NaCl or KCl, 25 C; NMR: 10 mM sodium or potassium phosphate pH 6.5, 100 mM NaCl or KCl, 298 K. As to conditions: protein: recombinant, tags: C-terminal 6xHis (pET28a), chain copies: 2. In general terms: Isothermal titration calorimetry measures the heat released or taken up as one component is titrated into another.

For data set [2], the target named is T2, UP1 (UniProt P09651-2 1-196). The data set is described as above. As to conditions: protein: recombinant, tags: C-terminal 6xHis (pET28a), chain copies: 2.
Data set [3] concerns the target T1, UP1+RGG. Description: ITC; 100 mM NaCl; ITC/CD: 20 mM Tris-Cl pH 8, 100 mM NaCl or KCl, 25 C; NMR: 10 mM sodium or potassium phosphate pH 6.5, 100 mM NaCl or KCl, 298 K. As to conditions: protein: recombinant, tags: C-terminal 6xHis (pET28a), chain copies: 2.
For data set [4], the target named is T2, UP1. The description is as above. As to conditions: protein: recombinant, tags: C-terminal 6xHis (pET28a), chain copies: 2.
In a further data set the target is RGG-box (UniProt P09651-2 197-249). The data set is described as follows: NMR 15N-1H HSQC titration; apparent Kd, global fit of 14 residues (individual 151-433 uM); ITC/CD: 20 mM Tris-Cl pH 8, 100 mM NaCl or KCl, 25 C; NMR: 10 mM sodium or potassium phosphate pH 6.5, 100 mM NaCl or KCl, 298 K. As to conditions: protein: recombinant; tags: N-terminal GST removed by TEV; intramolecular G4 (monomeric).
Sequence of RGG-box (P09651 197-249): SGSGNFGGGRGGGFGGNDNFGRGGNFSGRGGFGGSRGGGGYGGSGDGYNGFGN

T2 sequence (P09651 1-196): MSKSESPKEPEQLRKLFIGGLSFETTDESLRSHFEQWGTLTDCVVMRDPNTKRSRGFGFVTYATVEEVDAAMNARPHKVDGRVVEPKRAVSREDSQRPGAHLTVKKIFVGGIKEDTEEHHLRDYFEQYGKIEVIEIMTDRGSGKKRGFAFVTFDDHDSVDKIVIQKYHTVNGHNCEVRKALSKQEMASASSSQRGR
T1 sequence (P09651 1-249): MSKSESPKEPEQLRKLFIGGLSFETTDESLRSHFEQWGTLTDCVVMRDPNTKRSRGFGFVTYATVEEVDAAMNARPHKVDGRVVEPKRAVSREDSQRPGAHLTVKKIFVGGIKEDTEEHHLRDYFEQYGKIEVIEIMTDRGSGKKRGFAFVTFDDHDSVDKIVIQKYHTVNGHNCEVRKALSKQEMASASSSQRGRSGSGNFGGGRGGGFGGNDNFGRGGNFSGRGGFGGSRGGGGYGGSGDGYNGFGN

B1: Tel22ss (ssDNA)
DNA: AGGATTAGGATTAGGATTAGGA
Regarding B1, the Kd with UP1+RGG [1] (single strand) turned out to be 1110 ± 150 nM; with UP1 [2] (single strand), 1230 ± 140 nM; with UP1+RGG [3] (single strand) it was 1040 ± 150 nM; in the data set with UP1 [4] (single strand), 1200 ± 310 nM.

B2: Tel22 G-quadruplex (structured_DNA)
DNA: AGGGTTAGGGTTAGGGTTAGGG
Turning to B2, the Kd in the data set with UP1+RGG [1] (intramolecular G4 (monomeric)) worked out at 4850 ± 600 nM; with UP1 [2] (intramolecular G4 (monomeric)), 5620 ± 1090 nM; with RGG-box, 349000 ± 35000 nM; with UP1+RGG [3] (intramolecular G4 (monomeric)) it was 600 ± 130 nM; with UP1 [4] (intramolecular G4 (monomeric)), 710 ± 140 nM.

These data come from paper PMC6212785, “RGG-box in hnRNPA1 specifically recognizes the telomere G-quadruplex DNA and enhances the G-quadruplex unfolding ability of UP1 domain”.
